Test results taken from article PMC8928829 (mAbs, 2022).

Key:
Assay in all cases: BLI
Details in all cases: both partners purified
[1] = molecular target: T1, recombinant SARS-CoV-2 RBD, Alpha (B.1.1.7), N501Y (SARS-CoV-2, Alpha (B.1.1.7) RBD N501Y, N501Y)
T1 construct: also called RBD_(N501Y); source: bought: ACRO Biosystems

[2] = molecular target: T2, recombinant SARS-CoV-2 RBD, Beta (B.1.351), K417N, E484K, N501Y (SARS-CoV-2, Beta (B.1.351), K417N | E484K | N501Y)
T2 construct: source: bought: ACRO Biosystems

[3] = molecular target: T3, recombinant SARS-CoV-2 RBD, Gamma (P.1), K417T, E484K, N501Y (SARS-CoV-2, Gamma (P.1), K417T | E484K | N501Y)
T3 construct: source: bought: ACRO Biosystems

[4] = molecular target: T4, recombinant SARS-CoV-2 RBD, Delta (B.1.617.2), L452R, T478K (SARS-CoV-2, Delta (B.1.617.2), L452R | T478K)
T4 construct: also called Delta variant RBD; source: bought: ACRO Biosystems

[5] = molecular target: T5, SARS-CoV-2 RBD Alpha (B.1.1.7) N501Y (SARS-CoV-2, Alpha (B.1.1.7) RBD N501Y, N501Y)
T5 construct: also called RBD N501Y; source: bought: ACRO Biosystems

[6] = molecular target: T6, SARS-CoV-2 RBD Beta (B.1.351) (SARS-CoV-2, Beta (B.1.351), K417N | E484K | N501Y)
T6 construct: also called B.1.351/K417N, E484K, N501Y; source: bought: ACRO Biosystems

[7] = molecular target: T7, SARS-CoV-2 RBD Gamma (P.1) (SARS-CoV-2, Gamma (P.1), K417T | E484K | N501Y)
T7 construct: also called P.1/K417T, E484K, N501Y; source: bought: ACRO Biosystems

[8] = molecular target: T8, SARS-CoV-2 RBD Delta (B.1.617.2) (SARS-CoV-2, Delta (B.1.617.2), L452R | T478K)
T8 construct: also called B.1.617.2/L452R, T478K; source: bought: ACRO Biosystems

| Binder | Kd [1] [nM] | Kd [2] [nM] | Kd [3] [nM] | Kd [4] [nM] | kon [4] [M⁻¹ s⁻¹] | koff [5] [s⁻¹] | kon [5] [M⁻¹ s⁻¹] | koff [6] [s⁻¹] | kon [6] [M⁻¹ s⁻¹] | koff [7] [s⁻¹] | kon [7] [M⁻¹ s⁻¹] | koff [8] [s⁻¹] |
| --- | --- | --- | --- | --- | --- | --- | --- | --- | --- | --- | --- | --- |
| NIH-CoVnb-112 (VHH) VHH: DVQLQESGGGLVQPGGSLRLSCAASGLTLDYYAIGWFRQAPGKEREGVSCISSSDGSTYYADSVKGRFTTSRDNAKNTVYLQMNSLKPEDTAVYYCAAVPSTYYSGTYYYTCHPGGMDYWGKGTQVTVSS [NIH-CoVnb-112, listing 1 of 2 here] | 3 | 4.28 | 4.16 | 1.66 | 461000 |  |  |  |  |  |  |  |
| NIH-CoVnb-112 (VHH) VHH: DVQLQESGGGLVQPGGSLRLSCAASGLTLDYYAIGWFRQAPGKEREGVSCISSSDGSTYYADSVKGRFTTSRDNAKNTVYLQMNSLKPEDTAVYYCAAVPSTYYSGTYYYTCHPGGMDYWGKGTQVTVSS [NIH-CoVnb-112, listing 2 of 2 here] |  |  |  |  |  | 0.000428 | 153000 | 0.000705 | 201000 | 0.000822 | 214000 | 0.000609 |
